Assay results as given in paper PMC8805214, “Crystal structure of betaine aldehyde dehydrogenase from Burkholderia pseudomallei” (Acta Crystallographica. Section F, Structural Biology …, 2022).

Target: the molecule itself
Assay: crystal structure

B1: betaine aldehyde dehydrogenase from Burkholderia pseudomallei (enzyme)
chain: MSVYGLQRLYIAGAHADATSGKTFDTFDPATGELLARVQQASADDVDRAVASAREGQREWAAMTAMQRSRILRRAVELLRERNDALAELEMRDTGKPIAETRAVDIVTGADVIEYYAGLATAIEGLQVPLRPESFVYTRREPLGVCAGIGAWNYPIQIACWKSAPALAAGNAMIFKPSEVTPLSALKLAEIYTEAGVPAGVFNVVQGDGSVGALLSAHPGIAKVSFTGGVETGKKVMSLAGASSLKEVTMELGGKSPLIVFDDADLDRAADIAVTANFFSAGQVCTNGTRVFVQQAVKDAFVERVLARVARIRVGKPSDSDTNFGPLASAAQLDKVLGYIDSGKAEGAKLLAGGARLVNDHFASGQYVAPTVFGDCRDDMRIVREEIFGPVMSILSFETEDEAIARANATDYGLAAGVVTENLSRAHRAIHRLEAGICWINTWGESPAEMPVGGYKQSGVGRENGITTLEHYTRIKSVQVELGRYQPVF
notes: also called BpBADH; BpBADH-His; not shown: His6, C-terminal, kept
binding result: binds
